# Assay results reported in patent publication US20110182905A1 (published 2011).
# Changes are numbered by the printed parent chain. Values joined by “and” are separate entries in the source; they are usually repeats but may differ in a detail not shown here. Equal entries are not always repeated.
# B1: EV1018 variant 2 (antibody, human IgG1, lambda, L234A L235A, V domains shown)
# VH: QVELVESGGGMVQPGMPLRLSCVASGFTFSSYGMHWVRQAPGKGLEWVALTYHHGNRKFYADSVRGRFTISRDNSKNTLYLQMTSLRAEDTAVYFCARESMGAINDNWGQGTLVIVSS
# VL: QSALTQETSVSGTVGQKVTLSCIGNNNNIGSHAVGWYQQISRGAPKMVLFGRSPPSGVPDRFSGSKSGTTASLIISGLQPEDEADYYCSTWDSSLSAVVFGGGTKLTVLG
# B2: EV1019 (antibody, human IgG1, lambda, V domains shown)
# VH: QAQLVESGGGVVKPGGSLRLSCISSKFTFSSHAMHWVRQAPGKGLEWVAVIWHDGSKKYYADSVKGRFSVSRDNSKNTLFLQMDSLRAEDTAVYFCGKEWVGGTCDSWGQGTLVIVSS
# VL: QPALTQEASVSGTVGQTVTLLCSGNSSNIGSYAVGWYQQISRGAPKIVVFGKSPASGIPDRFSGSKSGTTASLLVSGLQPEDEADYYCSTWDSRLSAVLFGGGTKLTVLR
# notes: Fully human IgG1 lambda; also called EV1019 Batch 1; EV1019 Batch 2
# B3: EV1018 (antibody, human IgG1, lambda)
# heavy: not shown
# light: QSALTQETSVSGTVGQKVTLSCIGNNNNIGSHAVGWYQQISRGAPKMVLFGRSPPSGVPDRFSGSKSGTTASLIISGLQPEDEADYYCSTWDSSLSAVVFGGGTKLTVLRQPKAAPSVTLFPPSSEELQANKATLVCLISDFYPGAVTVAWKADSSPVKAGVETTTPSKQSNNKYAASSYLSLTPEQWKSHRSYSCQVTHEGSTVEKTVAPTECS
# notes: also called wild-type EV1018; WT EV1018
# B4: EV1018 variant 1 (antibody, human IgG1, lambda, L234A L235A)
# heavy: not shown
# light: B3 light with R110G, A153G
# What was measured:
# [1] = molecular target: T1, purified hGM-CSF (Biomol #2514, expressed in E. coli) (human, UniProt P04141 18-144); experiment: cell-based or functional assay
# T1 sequence (P04141 18-144 limits assumed): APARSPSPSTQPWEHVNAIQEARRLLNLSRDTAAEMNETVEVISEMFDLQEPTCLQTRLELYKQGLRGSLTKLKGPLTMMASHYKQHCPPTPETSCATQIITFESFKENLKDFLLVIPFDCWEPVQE
# [2] = molecular target: T2, rhesus GM-CSF (rhesus); experiment: Biacore, antibody on mouse anti-human chip, soluble rhesus GM-CSF
# T2 construct: also called rrGM-CSF (derived from HEK cells); recombinant rhesus GM-CSF
# Text: (§1) Mouse anti-human Biacore chips (GE Healthcare) are used to immobilize each of the antibodies and soluble commercially available purified GM-CSF (Biomol) is allowed to bind. The hGM-CSF used in these experiments is the same as that used in the bioassays described below.
# The rhesus GM-CSF sequence is present in the public databases (e.g., GenBank Accession No NP_{—}001028121) and is used to design an expression clone as an Fc fusion protein. Protease cleavage sites are introduced to allow release of untagged rhesus GM-CSF protein.
# [3] = molecular target: T1, purified hGM-CSF (Biomol #2514, …); experiment: Biacore, antibody on mouse anti-human chip, soluble hGM-CSF (Biomol)
# Text: as §1
# [4] = molecular target: T2, rhesus GM-CSF; experiment: cell-based or functional assay
# [5] = molecular target: T3, marmoset GM-CSF (marmoset); experiment: Biacore, antibody on mouse anti-human chip, soluble marmoset GM-CSF
# T3 construct: also called rmGM-CSF (derived from HEK cells); recombinant marmoset GM-CSF
# Text: as §1
# A marmoset GM-CSF expression clone (e.g., GenBank Accession No. B0KWQ4 with Methionine at position 53 and Proline at position 109) similar to the rhesus GM-CSF expression clone described above is generated.
# [6] = molecular target: T4, recombinant hGM-CSF derived from E. coli (Peprotech) (human, UniProt P04141 18-144); experiment: SPR (Biacore), antibody captured on protein G, hGM-CSF injected
# T4 construct: Bought protein; also called E. coli hGM-CSF (Peprotech); E. coli rhGM-CSF
# T4 sequence (P04141 18-144 limits assumed): as above
# Experimental: (§2) To calculate affinity constants for recombinant hGM-CSF binding to anti-hGM-CSF monoclonal antibodies, surface plasmon resonance (SPR) was performed on a Biacore System™ (FIG. 2).
# (§3) In the method to analyze the interaction between antibodies and antigens, the purified antibodies were captured on a sensor chip via interaction with protein G immobilized to sensor chip surface, and then recombinant antigens were injected to the sensor chip. Purified antibodies were used and recombinant hGM-CSF was used as an antigen.
# [7] = molecular target: T5, recombinant hGM-CSF derived from yeast (Leukine, Berlex) (human, UniProt P04141 18-144); experiment: as above
# T5 construct: Bought protein; also called yeast hGM-CSF (Leukine); yeast rhGM-CSF
# T5 sequence (P04141 18-144 limits assumed): as above
# Experimental: as §2, §3
# [8] = molecular target: T1, purified hGM-CSF (Biomol #2514, …); experiment: cell-based or functional assay; remark: listed apart in the source
# [9] = molecular target: T2, rhesus GM-CSF; experiment: cell-based or functional assay; remark: listed apart in the source
# [10] = molecular target: T1, purified hGM-CSF (Biomol #2514, …); experiment: cell-based or functional assay; remark: listed apart in the source
# [11] = molecular target: T1, purified hGM-CSF (Biomol #2514, …); experiment: own Biacore KD of EV1018 set against the 7 pM cited for MOR04357-Fab from WO2006/122797
Binder,IC50 in TF-1 proliferation assay [1],Kd [2],Kd [3],IC50 in TF-1 proliferation assay [4],Kd [5],Kd [6],Kd [7],IC50 in U937 IL-8 secretion assay [8],IC50 in U937 IL-8 secretion assay [9],"Ratio: Reference antibody (BVD2-21C11) to antibody of interest, TF-1 assay [10]",times less binding than MOR04357 [11]
B1,0.0333 nM,,,,,,,,,,
B2,5.7 ng/ml and 38 pM,0.739 nM and 0.543 nM,0.152 nM,2.8 ng/ml and 19 pM,1.4 nM,0.15 nM,0.36 nM,4.7 ng/ml and 31.3 pM,2.4 ng/ml and 16 pM,,
B3,2.3 ng/ml and 15 pM,0.381 nM,0.112 nM,1.7 ng/ml and 11 pM,2.1 nM,0.15 nM,0.23 nM,0.9 ng/ml and 6 pM,0.8 ng/ml and 5.6 pM,413 ratio,~16 fold
B4,0.032 nM,,,,,,,,,,
